Consider 32 variants from the RNAGym collection of RNA variant scans (doi:10.7554/elife.80360).

Sequences and labels used below:
B1: HDV Ribozyme (parent)
chain: GGCCGGCAUGGUCCCAGCCUCCUCGCUGGCGCCGGCUGGGCAACAUUCCGAGGGGACCGUCCCCUCGGUAAUGGCGAAUGGGACCCA

This data set covers variants of B1. In words: self-cleavage, relative activity (ratio to wild type); higher = more cleavage; co-transcriptional.
GGCCGGCAUGGUCCCAGCAUCCUCGCUGGCGCCGGCUGGGCAACAUUCCGAGGGGACCGUCCCCUCGGUAAUGGCGAAUGGGACCCA [C19A]: the self-cleavage stood at 0.123.
The result for GGCCGGCAUGGUCCCAGCAUCCUCGCUGGGGCCGGCUGGGCAACAUUCCGAGGGGACCGUCCCCUCGGUAAUGGCGAAUGGGACCCA [C19A C30G] reads 0.0437; that for GGCCGGCAUGGUCCCAGCAUCCUCGCUGGUGCCGGCUGGGCAACAUUCCGAGGGGACCGUCCCCUCGGUAAUGGCGAAUGGGACCCA [C19A C30U], 0.0623; that for GGCCGGCAUGGUCCCAGCAUCCUCGCUGGCGCUGGCUGGGCAACAUUCCGAGGGGACCGUCCCCUCGGUAAUGGCGAAUGGGACCCA [C19A C33U], 0.
Then GGCCGGCAUGGUCCCAGCAUCCUCGCUGGCGCAGGCUGGGCAACAUUCCGAGGGGACCGUCCCCUCGGUAAUGGCGAAUGGGACCCA [C19A C33A], with 0.0852.
The result for GGCCGGCAUGGUCCCAGUCUCCUCGCUGGCGCCGGCUGGGCAACAUUCCGAGGGUACCGUCCCCUCGGUAAUGGCGAAUGGGACCCA [C18U G55U] reads 0.595; that for GGCCGGCAUGGUCCCAGUCUCCUCGCUGGCGCCGGCUGGGCAACAUUCCGAGGGAACCGUCCCCUCGGUAAUGGCGAAUGGGACCCA [C18U G55A], 0.919; that for GGCCGGCAUGGUCCCAGCAUCCUCGGUGGCGCCGGCUGGGCAACAUUCCGAGGGGACCGUCCCCUCGGUAAUGGCGAAUGGGACCCA [C19A C26G], 0.312.
In the case of GGCCGGCAUGGUCCCAGCAUCCUCGUUGGCGCCGGCUGGGCAACAUUCCGAGGGGACCGUCCCCUCGGUAAUGGCGAAUGGGACCCA [C19A C26U], the self-cleavage came to 0.929.
With GGCCGGCAUGGUCCCAGCAUCCUCGAUGGCGCCGGCUGGGCAACAUUCCGAGGGGACCGUCCCCUCGGUAAUGGCGAAUGGGACCCA [C19A C26A], the self-cleavage was 0.462.
The result for GGCCGGCAUGGUCCCAGCAUCCUCGCUGGCGCCGGCUGGGCAAUAUUCCGAGGGGACCGUCCCCUCGGUAAUGGCGAAUGGGACCCA [C19A C44U] reads 0.0191; that for GGCCGGCAUGGUCCCAGCAUCCUCGCUGGCGCCGGCUGGGCAAAAUUCCGAGGGGACCGUCCCCUCGGUAAUGGCGAAUGGGACCCA [C19A C44A], 0.149; that for GGCCGGCAUGGUCCCAGCAUCCUCGCUGGCGCCGGCUGGGCAACAUUCCGAGGGGACCGUCCCCUCGGUAAUGGCGAAUGGGGCCCA [C19A A83G], 0.122.
The result for GGCCGGCAUGGUCCCAGCAUCCUCGCUGGCGUCGGCUGGGCAACAUUCCGAGGGGACCGUCCCCUCGGUAAUGGCGAAUGGGACCCA [C19A C32U] reads 0.0841.
For the variant GGCCGGCAUGGUCCCAGCAUCCUCGCUGGCGGCGGCUGGGCAACAUUCCGAGGGGACCGUCCCCUCGGUAAUGGCGAAUGGGACCCA [C19A C32G], the self-cleavage is 0.116.
On to GGCCGGCAUGGUCCCAGCAUCCUCGCUGGCGCCGGCUGGGCAACAUUCCGAGGGGACCGUCCCCUCGGUAGUGGCGAAUGGGACCCA [C19A A71G], for which the self-cleavage came to 0.136.
The result for GGCCGGCAUGGUCCCAGCAUCCUCGCUGGCGCCGGCUGGGCAACAUUCCGAGGGGACCGUCCCCUCGGUACUGGCGAAUGGGACCCA [C19A A71C] reads 0.0396; that for GGCCGGCAUGGUCCCAGCAUCCUCGCUGGCGCCGGCUGGGCAACAUUCCGAGGGGACCGUCCCCUCGGUAUUGGCGAAUGGGACCCA [C19A A71U], 0.0978.
On to GGCCGGCAUGGUCCCAGCAUCCUCGCUGGCGCCGGCUGGGCAACAUUCCGAGGGGCCCGUCCCCUCGGUAAUGGCGAAUGGGACCCA [C19A A56C], for which the self-cleavage came to 0.173.
On to GGCCGGCAUGGUCCCAGUCUCCUCGCUGGCGCCGGCUGGGCAACAUUCCGAGGGGACCGUCCCCUCGGUAAUGGCAAAUGGGACCCA [C18U G76A], for which the self-cleavage is 0.728.
As for GGCCGGCAUGGUCCCAGUCUCCGCGCUGGCGCCGGCUGGGCAACAUUCCGAGGGGACCGUCCCCUCGGUAAUGGCGAAUGGGACCCA [C18U U23G], the self-cleavage came to 0.383.
Then GGCCGGCAUGGUCCCAGUCUCCUCGCUGGCGCCGGCUGGGCAACAUUCCGAGGGGACCGUCCCCUCGGUAAUAGCGAAUGGGACCCA [C18U G73A], with 0.161; and GGCCGGCAUGGUCCCAGCAUCCUCGCUGGCGCCGGCUGGGCACCAUUCCGAGGGGACCGUCCCCUCGGUAAUGGCGAAUGGGACCCA [C19A A43C], with 0.0665; and GGCCGGCAUGGUCCCAGCAUCCUCGCUGGCGCCGGCUGGGCAGCAUUCCGAGGGGACCGUCCCCUCGGUAAUGGCGAAUGGGACCCA [C19A A43G], with 0.0354.
The result for GGCCGGCAUGGUCCCAGCAUCCUCGCUGGCGCCGGCUGGGCAACAUUCCGAGGGGACCGUCCCCUCGGUAAUGGCGCAUGGGACCCA [C19A A77C] reads 0.0941; that for GGCCGGCAUGGUCCCAGCAUCCUCGCUGGCGCCGGCUGGGCAACAUUCCGAGGGGACCGUCCCCUCGGUAAUGGCGUAUGGGACCCA [C19A A77U], 0.145.
Then GGCCGGCAUGGUCCCAGCAUCCUCGCUGGCGCCGGCUGGGCAACAUUCCGAGGGGACCGUCCCCUCGGUCAUGGCGAAUGGGACCCA [C19A A70C], with 0.0573.
In the case of GGCCGGCAUGGUCCCAGCAUCCUCGCUGGCGCCGGCUGGGCAACAUUCCGAGGGGACCGUCCCCUCGGUUAUGGCGAAUGGGACCCA [C19A A70U], the self-cleavage was 0.277.
The result for GGCCGGCAUGGUCCCAGCAUCCUCGCUGGCGCCGGCUGGGCAACAUUCCGAGGGGACCGUCCCCUCGGUGAUGGCGAAUGGGACCCA [C19A A70G] reads 0.136; that for GGCCGGCAUGGUCCCAGCAUCCUCGCUGGCGCCGGAUGGGCAACAUUCCGAGGGGACCGUCCCCUCGGUAAUGGCGAAUGGGACCCA [C19A C36A], 0.119.
The result for GGCCGGCAUGGUCCCAGUCUCCUCGCUGGCGCCGGCUGGGCAACAUUCCGAGGAGACCGUCCCCUCGGUAAUGGCGAAUGGGACCCA [C18U G54A] reads 0.295; that for GGCCGGCAUGGUCCCAGCAUCCUCGCUGGCGCCGGCUGGGCAACAUUCCGCGGGGACCGUCCCCUCGGUAAUGGCGAAUGGGACCCA [C19A A51C], 0.0733.
